Experimental data from publication PMC12081870 (Communications Biology, 2025).

Assay: 15N NMR relaxation (T1, T2, NOE) of Sla1 SH3#1&2
Type: physicochemical, Saccharomyces cerevisiae
Set-up: Time Constant (T2) / T1 / T2: unit not given here
Details: fit A exp(-Bx), 11 peaks
Text: Fig. 2 A structural analysis of Sla1 SH3 domains 1 and 2. A The predicted interface between the first two SH3 domains of Sla1 as modelled using Alphafold. SH3#1 is shown in light green and SH3#2 is shown in cyan. Residues predicted to form hydrogen bonds using the Pymol search function are shown as sticks and labelled with their respective residue numbers. Dashed black lines indicate interactions. The red line in the structure indicates residues 67–70 in the hinge between the SH3 domains; the magenta loop indicates residues 52–54. B Assignment of the ^1H ^15N HSQC spectrum of Sla1 SH3 domains 1 and 2. C^15N relaxation data for Sla1 SH3#1&2. The linker between domains is approximately residues 67–70 (shown with red line under the trace and in A), and the mobile region 52-54 is part of a loop (shown with magenta line below the trace and in A). The correlation time of 8.5 ns (derived from the trimmed ^15N T1/T2 ratio), matches that calculated for a rigid two-domain structure rather than two independent domains (8.8 and 4.5 ns, respectively).
To investigate further, we purified ^15N, ^13C labelled Sla1 SH3#1&2 and analysed using NMR. A full assignment was obtained (Fig. 2B) which confirmed the Alphafold structure. An important aspect when considering the function of tandem domains is the level of rigidity or flexibility between the domains. […] NMR was used to determine relaxation parameters (^15N R1, R2 and NOE) of ^15N-labelled SH3#1-2 (Fig. 2B). […] The structural unity of the two-domain structure explains why attempts to study SH3#2 alone were unsuccessful.
Experiments were carried out on Bruker DRX-600 and DRX-800 spectrometers fitted with cryoprobes. SH3 domains 1 and 2 were assigned using a standard set of HNCA/HN(CO)CA, HNCO/HN(CA)CO and CBCAHN/CBCA(CO)HN 3D spectra. The assignment has been deposited at BioMagResBank, with code 52650. SH3 domain-3 was assigned by comparison to data provided by Prof Ishwar Radhakrishnan (Northwestern University) for the same domain although with different residues at both ends. Titrations were conducted with three peptides (GenScript Biotech, UK) comprising the three PP motifs (Fig. 3A): p1 […] (residues 318–339); p2 […] (residues 330–361); and p3 […] (residues 375–397). Peptide solutions were prepared as concentrated stock solutions in the same buffer at the same pH and added stepwise to protein solutions. Shift changes were analysed by picking peaks in Felix (Felix NMR Inc, San Diego, CA), which were downloaded to text files and for determining Kd were analysed using Levenberg-Marquardt least squares fitting to the standard quadratic equation[63]. Analysis of the ^15N relaxation data was carried using CCPN Analysis[64].

B1: Sla1 SH3#1-2: SH3#1-2 (aa 5-131), tandem domains; sequence in b253 (protein)
chain: LGIYRAVYAYEPQTPEELAIQEDDLLYLLQKSDIDDWWTVKKRVIGSDSEEPVGLVPSTYIEEAPVLKKVRAIYDYEQVQNADEELTFHENDVFDVFDDKDADWLLVKSTVSNEFGFIPGNYVEPEN
modifications: 15N-labelled (NMR only); left off: GST, end not stated, cleaved
Question: Which results are given for B1?
Answer: Time Constant (T2) (residue 39, 39AspH/39AspN): 104.622; Time Constant (T2) (residue 40, 40AspH/40AspN): 92.3559; Time Constant (T2) (residue 41, 41TrpH/41TrpN): 105.38; Time Constant (T2) (residue 42, 42TrpH/42TrpN): 87.941; Time Constant (T2) (residue 43, 43ThrH/43ThrN): 96.7782; Time Constant (T2) (residue 44, 44ValH/44ValN): 79.239; Time Constant (T2) (residue 45, 45LysH/45LysN): 89.2928; Time Constant (T2) (residue 46, 46LysH/46LysN): 79.9381; Time Constant (T2) (residue 47, 47ArgH/47ArgN): 96.0563; Time Constant (T2) (residue 48, 48ValH/48ValN): 80.6125; Time Constant (T2) (residue 49, 49IleH/49IleN): 93.7827; Time Constant (T2) (residue 50, 50GlyH/50GlyN): 115.88; Time Constant (T2) (residue 51, 51SerH/51SerN): 86.3946; Time Constant (T2) (residue 52, 52AspH/52AspN): 168.141; Time Constant (T2) (residue 53, 53SerH/53SerN): 144.016; Time Constant (T2) (residue 54, 54GluH/54GluN): 154.977; Time Constant (T2) (residue 55, 55GluH/55GluN): 101.598; Time Constant (T2) (residue 57, 57ValH/57ValN): 100.05; Time Constant (T2) (residue 58, 58GlyH/58GlyN): 89.0014; Time Constant (T2) (residue 59, 59LeuH/59LeuN): 85.278; Time Constant (T2) (residue 60, 60ValH/60ValN): 98.7206; Time Constant (T2) (residue 62, 62SerH/62SerN): 97.5945; Time Constant (T2) (residue 63, 63ThrH/63ThrN): 81.7496; Time Constant (T2) (residue 64, 64TyrH/64TyrN): 104.147; Time Constant (T2) (residue 65, 65IleH/65IleN): 90.7515; Time Constant (T2) (residue 66, 66GluH/66GluN): 88.572; Time Constant (T2) (residue 67, 67GluH/67GluN): 102.479; Time Constant (T2) (residue 68, 68AlaH/68AlaN): 84.1741; Time Constant (T2) (residue 70, 70ValH/70ValN): 100.257; Time Constant (T2) (residue 71, 71LeuH/71LeuN): 80.9555; Time Constant (T2) (residue 72, 72LysH/72LysN): 97.8301; Time Constant (T2) (residue 73, 73LysH/73LysN): 97.0107; Time Constant (T2) (residue 74, 74ValH/74ValN): 95.1713; Time Constant (T2) (residue 75, 75ArgH/75ArgN): 95.2306; Time Constant (T2) (residue 76, 76AlaH/76AlaN): 79.2788; Time Constant (T2) (residue 77, 77IleH/77IleN): 85.3516; Time Constant (T2) (residue 78, 78TyrH/78TyrN): 77.7575; Time Constant (T2) (residue 79, 79AspH/79AspN): 86.8514; Time Constant (T2) (residue 80, 80TyrH/80TyrN): 102.25; Time Constant (T2) (residue 81, 81GluH/81GluN): 91.1679; Time Constant (T2) (residue 82, 82GlnH/82GlnN): 103.776; Time Constant (T2) (residue 83, 83ValH/83ValN): 96.58; Time Constant (T2) (residue 84, 84GlnH/84GlnN): 115.172; Time Constant (T2) (residue 85, 85AsnH/85AsnN): 109.146; Time Constant (T2) (residue 86, 86AlaH/86AlaN): 101.454; Time Constant (T2) (residue 87, 87AspH/87AspN): 93.3182; Time Constant (T2) (residue 88, 88GluH/88GluN): 94.5093; Time Constant (T2) (residue 89, 89GluH/89GluN): 99.1662; Time Constant (T2) (residue 90, 90LeuH/90LeuN): 96.3149; Time Constant (T2) (residue 91, 91ThrH/91ThrN): 78.2582; Time Constant (T2) (residue 92, 92PheH/92PheN): 85.0538; Time Constant (T2) (residue 93, 93HisH/93HisN): 82.1244; Time Constant (T2) (residue 94, 94GluH/94GluN): 97.249; Time Constant (T2) (residue 95, 95AsnH/95AsnN): 98.0824; Time Constant (T2) (residue 96, 96AspH/96AspN): 93.6871; Time Constant (T2) (residue 97, 97ValH/97ValN): 100.422; Time Constant (T2) (residue 98, 98PheH/98PheN): 79.4419; Time Constant (T2) (residue 99, 99AspH/99AspN): 97.6801; Time Constant (T2) (residue 100, 100ValH/100ValN): 97.751; Time Constant (T2) (residue 101, 101PheH/101PheN): 95.7132; Time Constant (T2) (residue 102, 102AspH/102AspN): 87.4197; Time Constant (T2) (residue 103, 103AspH/103AspN): 77.1058; Time Constant (T2) (residue 104, 104LysH/104LysN): 88.8779; Time Constant (T2) (residue 105, 105AspH/105AspN): 102.407; Time Constant (T2) (residue 106, 106AlaH/106AlaN): 137.978; Time Constant (T2) (residue 107, 107AspH/107AspN): 99.1634; Time Constant (T2) (residue 108, 108TrpH/108TrpN): 105.531; Time Constant (T2) (residue 109, 109LeuH/109LeuN): 92.4282; Time Constant (T2) (residue 110, 110LeuH/110LeuN): 99.3469; Time Constant (T2) (residue 111, 111ValH/111ValN): 90.5694; Time Constant (T2) (residue 112, 112LysH/112LysN): 92.6618; Time Constant (T2) (residue 113, 113SerH/113SerN): 88.7102; Time Constant (T2) (residue 114, 114ThrH/114ThrN): 88.1188; Time Constant (T2) (residue 115, 115ValH/115ValN): 99.4179; Time Constant (T2) (residue 116, 116SerH/116SerN): 105.651; Time Constant (T2) (residue 117, 117AsnH/117AsnN): 79.9936; Time Constant (T2) (residue 118, 118GluH/118GluN): 87.975; Time Constant (T2) (residue 119, 119PheH/119PheN): 95.7684; Time Constant (T2) (residue 120, 120GlyH/120GlyN): 81.3349; Time Constant (T2) (residue 121, 121PheH/121PheN): 97.0012; Time Constant (T2) (residue 122, 122IleH/122IleN): 86.8543
